Source: patent US20140113348A1

Target: meditope-enabled trastuzumab Fab fragment
Assay: SPR; meditope alone on the Fab fragment, not IgG

Sequence of meditope-enabled trastuzumab Fab fragment (chain, as listed by the source limits assumed, chain 1 of 2): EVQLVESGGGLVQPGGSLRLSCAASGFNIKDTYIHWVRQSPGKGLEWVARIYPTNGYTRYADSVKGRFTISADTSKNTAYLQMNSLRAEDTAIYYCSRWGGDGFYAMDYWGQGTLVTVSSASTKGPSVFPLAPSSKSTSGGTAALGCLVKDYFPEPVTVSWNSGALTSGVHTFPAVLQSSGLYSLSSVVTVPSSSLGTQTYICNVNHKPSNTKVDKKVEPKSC
Sequence of meditope-enabled trastuzumab Fab fragment (chain, as listed by the source limits assumed, chain 2 of 2): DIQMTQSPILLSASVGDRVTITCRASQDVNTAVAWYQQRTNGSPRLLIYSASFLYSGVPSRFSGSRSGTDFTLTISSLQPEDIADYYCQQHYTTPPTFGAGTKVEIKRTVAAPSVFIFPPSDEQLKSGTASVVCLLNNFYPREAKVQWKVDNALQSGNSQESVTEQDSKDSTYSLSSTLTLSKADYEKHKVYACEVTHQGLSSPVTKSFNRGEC

CQFDLSTRRLKC (modifications not checked) [cQFD meditope (cyclic …)]
Kd: 1000 nM
